Our source for the Kd values is US20210253736A1 (published 2021).

The target of one assay is T1, Cyno.
T1 chain: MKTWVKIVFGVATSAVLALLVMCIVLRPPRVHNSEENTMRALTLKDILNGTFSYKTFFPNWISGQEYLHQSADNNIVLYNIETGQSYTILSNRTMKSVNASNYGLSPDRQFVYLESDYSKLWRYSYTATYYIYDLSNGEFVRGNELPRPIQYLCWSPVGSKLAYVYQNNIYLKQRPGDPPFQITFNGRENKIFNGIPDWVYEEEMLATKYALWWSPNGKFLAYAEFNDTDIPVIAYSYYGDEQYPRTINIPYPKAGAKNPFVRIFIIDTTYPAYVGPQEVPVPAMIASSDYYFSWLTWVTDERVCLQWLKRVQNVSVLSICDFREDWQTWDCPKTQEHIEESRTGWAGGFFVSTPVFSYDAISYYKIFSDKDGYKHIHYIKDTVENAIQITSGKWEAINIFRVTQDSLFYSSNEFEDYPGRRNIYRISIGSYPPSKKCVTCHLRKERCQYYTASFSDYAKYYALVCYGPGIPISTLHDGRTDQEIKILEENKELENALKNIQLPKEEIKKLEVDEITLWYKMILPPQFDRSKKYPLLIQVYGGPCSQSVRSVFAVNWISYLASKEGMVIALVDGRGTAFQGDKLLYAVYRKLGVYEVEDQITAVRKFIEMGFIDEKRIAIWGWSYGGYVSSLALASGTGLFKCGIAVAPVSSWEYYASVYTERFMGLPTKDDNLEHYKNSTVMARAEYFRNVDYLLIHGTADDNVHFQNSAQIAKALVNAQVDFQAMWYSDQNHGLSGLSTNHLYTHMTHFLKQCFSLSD
Briefly: Octet. Background: Biolayer interferometry detects binding as a change in optical thickness at a sensor tip.

The target of assay [1] is T2, His-tagged human FAP (human, UniProt Q12884 26-760). The assay can be described thus: Octet.
The target in the next assay is T3, His-tagged murine FAP (murine, UniProt P97321 26-761).
T3 chain: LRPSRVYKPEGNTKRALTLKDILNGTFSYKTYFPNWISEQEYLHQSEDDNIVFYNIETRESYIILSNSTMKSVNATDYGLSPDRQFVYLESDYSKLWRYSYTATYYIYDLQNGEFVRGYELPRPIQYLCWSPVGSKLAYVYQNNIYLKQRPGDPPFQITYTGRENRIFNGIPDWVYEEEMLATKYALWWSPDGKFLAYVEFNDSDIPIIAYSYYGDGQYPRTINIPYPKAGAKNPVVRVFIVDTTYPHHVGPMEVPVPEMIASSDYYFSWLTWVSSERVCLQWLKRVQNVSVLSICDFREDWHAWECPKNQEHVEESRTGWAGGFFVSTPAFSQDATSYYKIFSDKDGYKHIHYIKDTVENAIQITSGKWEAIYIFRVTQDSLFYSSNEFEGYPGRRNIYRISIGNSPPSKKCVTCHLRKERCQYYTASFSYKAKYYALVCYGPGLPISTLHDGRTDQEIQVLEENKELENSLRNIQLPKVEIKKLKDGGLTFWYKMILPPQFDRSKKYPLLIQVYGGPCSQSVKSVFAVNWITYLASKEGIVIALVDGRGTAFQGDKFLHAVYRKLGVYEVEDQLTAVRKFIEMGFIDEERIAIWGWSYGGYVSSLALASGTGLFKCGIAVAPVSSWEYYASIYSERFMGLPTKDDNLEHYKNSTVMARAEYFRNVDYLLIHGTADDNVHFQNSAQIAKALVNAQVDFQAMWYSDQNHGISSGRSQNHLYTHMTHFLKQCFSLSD
Briefly: Octet.

A further assay addresses T4, Cyno FAP.
T4 chain: T1 chain
Briefly: Octet; apparent KD.

In assay [2] the target is T2, His-tagged human FAP. Briefly: Octet; apparent KD.

B1: XENP24448 (1C3A5) (antibody, V domains shown)
VH: EVQLLESGGGLVQPGGSLRLSCAASGFTFSSYAMSWVRQAPGKGLEWVSAISGSGGGTRYADSVKGRFTISRDNSKNTLYLQMNSLRAEDTAVYYCAKHSSGFHWYFDYWGQGTLVTVSS
VL: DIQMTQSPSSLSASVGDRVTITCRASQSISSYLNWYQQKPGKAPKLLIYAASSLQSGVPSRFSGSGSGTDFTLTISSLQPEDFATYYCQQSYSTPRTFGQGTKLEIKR
With B1, the Kd stood at 5.01 nM with Cyno and 4.54 nM in the assay with His-tagged human FAP [1].

B2: XENP24466 (1F12B5) (antibody, V domains shown)
VH: EVQLLESGGGLVQPGGSLRLSCAASGFTFSSYAMTWVRQAPGKGLEWVSTISSSGGTTYYADSVKGRFTISRDNSKNTLYLQMNSLRAEDTAVYYCAKYPSYYSVTGFDYWGQGTLVTVSS
VL: not shown
Turning to B2, the Kd with Cyno and with His-tagged human FAP [1] was less than 0.001 nM each time.

B3: XENP24471 (1F10B5) (antibody, V domains shown)
VH: EVQLLESGGGLVQPGGSLRLSCAASGFTFSSYGMSWVRQAPGKGLEWVSGISGSGSSTHYADSVKGRFTISRDNSKNTLYLQMNSLRAEDTAVYYCAKGTTGLSYFDYWGQGTLVTVSS
VL: not shown
As for B3, the Kd stood at 6.93 nM with Cyno, 9.13 nM with His-tagged human FAP [1] and 4.52 nM with His-tagged murine FAP.

B4: XENP24011 (sibrotuzumab, central-scFv) (antibody)
chain 1: QVQLVQSGAEVKKPGASVKVSCKTSRYTFTEYTIHWVRQAPGQRLEWIGGINPNNGIPNYNQKFKGRVTITVDTSASTAYMELSSLRSEDTAVYYCARRRIAYGYDEGHAMDYWGQGTLVTVSSASTKGPSVFPLAPSSKSTSGGTAALGCLVKDYFPEPVTVSWNSGALTSGVHTFPAVLQSSGLYSLSSVVTVPSSSLGTQTYICNVNHKPSDTKVDKKVEPKSCDKTHTCPPCPAPPVAGPSVFLFPPKPKDTLMISRTPEVTCVVVDVKHEDPEVKFNWYVDGVEVHNAKTKPREEEYNSTYRVVSVLTVLHQDWLNGKEYKCKVSNKALPAPIEKTISKAKGQPREPQVYTLPPSREEMTKNQVSLTCDVSGFYPSDIAVEWESDGQPENNYKTTPPVLDSDGSFFLYSKLTVDKSRWEQGDVFSCSVMHEALHNHYTQKSLSLSPGK
chain 2: QVQLVQSGAEVKKPGASVKVSCKTSRYTFTEYTIHWVRQAPGQRLEWIGGINPNNGIPNYNQKFKGRVTITVDTSASTAYMELSSLRSEDTAVYYCARRRIAYGYDEGHAMDYWGQGTLVTVSSASTKGPSVFPLAPSSKSTSGGTAALGCLVKDYFPEPVTVSWNSGALTSGVHTFPAVLQSSGLYSLSSVVTVPSSSLGTQTYICNVNHKPSNTKVDKKVEPKSCGGGGSGGGGSEVQLVESGGGLVQPGGSLRLSCAASGFTFSTYAMNWVRQAPGKGLEWVGRIRSKYNNYATYYADSVKGRFTISRDDSKNTLYLQMNSLRAEDTAVYYCVRHGNFGDSYVSWFAYWGQGTLVTVSSGKPGSGKPGSGKPGSGKPGSQAVVTQEPSLTVSPGGTVTLTCGSSTGAVTTSNYANWVQQKPGKSPRGLIGGTNKRAPGVPARFSGSLLGGKAALTISGAQPEDEADYYCALWYSNHWVFGGGTKLTVLGGGGSGGGGSKTHTCPPCPAPPVAGPSVFLFPPKPKDTLMISRTPEVTCVVVDVKHEDPEVKFNWYVDGVEVHNAKTKPREEQYNSTYRVVSVLTVLHQDWLNGKEYKCKVSNKALPAPIEKTISKAKGQPREPQVYTLPPSREQMTKNQVKLTCLVKGFYPSDIAVEWESNGQPENNYKTTPPVLDSDGSFFLYSKLTVDKSRWQQGNVFSCSVMHEALHNHYTQKSLSLSPGK
chain 3: not shown
For the molecule B4, the results for the Kd with Cyno FAP and with His-tagged human FAP [2] were 0.0149 nM and 0.0308 nM, respectively.

B5: XENP24463 (1F11B5) (antibody, V domains shown)
VH: EVQLLESGGGLVQPGGSLRLSCAASGFTFSSYAMNWVRQAPGKGLEWVSGISGGGSSTTYYADSVKGRFTISRDNSKNTLYLQMNSLRAEDTAVYYCAKPYYWVDSFFDYWGQGTLVTVSS
VL: not shown
For B5, the results for the Kd in the assay with Cyno, with His-tagged human FAP [1] and with His-tagged murine FAP were 0.0224 nM, less than 0.001 nM and 45.5 nM, respectively.

B6: XENP23936 (3F2, central-scFv) (antibody)
chain 1: not shown
chain 2: not shown
chain 3: EIVLTQSPGTLSLSPGERATLSCRASQSVTSSYLAWYQQKPGQAPRLLINVGSRRATGIPDRFSGSGSGTDFTLTISRLEPEDFAVYYCQQGIMLPPTFGQGTKVEIKRTVAAPSVFIFPPSDEQLKSGTASVVCLLNNFYPREAKVQWKVDNALQSGNSQESVTEQDSKDSTYSLSSTLTLSKADYEKHKVYACEVTHQGLSSPVTKSFNRGEC
B6: the Kd with Cyno FAP amounted to 0.187 nM; in the assay with His-tagged human FAP [2], 0.323 nM.

B7: XENP24461 (1A7B5) (antibody, V domains shown)
VH: EVQLLESGGGLVQPGGSLRLSCAASGFTFSSYAMSWVRQAPGKGLEWVSGISGGGGSTYYADSVKGRFTISRDNSKNTLYLQMNSLRAEDTAVYYCAKIAHSRIGWHFDYWGQGTLVTVSS
VL: not shown
On to B7, for which the Kd with Cyno turned out to be 1.11 nM; with His-tagged human FAP [1], 1.02 nM.

B8: XENP23534 (sibrotuzumab) (antibody, V domains shown)
VH: QVQLVQSGAEVKKPGASVKVSCKTSRYTFTEYTIHWVRQAPGQRLEWIGGINPNNGIPNYNQKFKGRVTITVDTSASTAYMELSSLRSEDTAVYYCARRRIAYGYDEGHAMDYWGQGTLVTVSS
VL: DIVMTQSPDSLAVSLGERATINCKSSQSLLYSRNQKNYLAWYQQKPGQPPKLLIFWASTRESGVPDRFSGSGFGTDFTLTISSLQAEDVAVYYCQQYFSYPLTFGQGTKVEIKR
In the case of B8, the Kd with Cyno and with His-tagged human FAP [1] was less than 0.001 nM throughout.

B9: XENP24460 (1A1B5) (antibody, V domains shown)
VH: EVQLLESGGGLVQPGGSLRLSCAASGFTFSSYAMNWVRQAPGKGLEWVSTISSSGSRTYYADSVKGRFTISRDNSKNTLYLQMNSLRAEDTAVYYCAKGLVASAPFDYWGQGTLVTVSS
VL: not shown
Regarding B9, the Kd with Cyno stood at 0.458 nM; with His-tagged human FAP [1] it was 0.515 nM.

B10: XENP24462 (1F4B5) (antibody, V domains shown)
VH: EVQLLESGGGLVQPGGSLRLSCAASGFTFSRYAMTWVRQAPGKGLEWVSSISASGGSTYYADSVKGRFTISRDNSKNTLYLQMNSLRAEDTAVYYCAKTFSGYAHYDFDYWGQGTLVTVSS
VL: not shown
With B10, the values for the Kd with Cyno, with His-tagged human FAP [1] and in the assay with His-tagged murine FAP were 0.53 nM, 0.372 nM and 33 nM, respectively.
